For assay [1], the target named is T1, His-tagged, full-length PCSK9 (human, UniProt Q8NBP7 31-692).
T1 construct: secreted PCSK9 is autocatalytically cleaved into prodomain and catalytic domain + CRD (from S153), which stay associated; also called His-PCSK9; proprotein convertase subtilisin/kexin type 9; not shown: His tag
Description: TR-FRET competition (PCSK9/EGF(A) assay); competitor EGF(A)-Fc.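 Further: proximity signal from anti-His APC on PCSK9 paired with anti-Fc europium on the Fc ligand, read as normalized TR-FRET ratio across compound dilutions.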

Another assay deals with T2, His-tagged PCSK9Δhelix (human, UniProt Q8NBP7 31-152; Q8NBP7 168-692).
T2 construct: Human PCSK9 M1-Q692 with an engineered TEV site, cut by TEV protease; new N-terminus of the catalytic domain is S-A168; also called His-PCSK9Δhelix; not shown: His tag
Description: TR-FRET competition (PCSK9Δhelix/Ab20 assay); competitor Ab20. (Time-resolved FRET reads energy transfer from a long-lived donor to a nearby acceptor.)

“And” between values parts separate entries of the source, which are not always exact repeats. Equal entries are not always repeated. Numbered stars: 1 amine (or outer) side, 2 acyl side, 3 side chain; on linkers, the order of the positions; unused ones are H or OH. Bridge positions count the residues as written; N and C are the ends. Square brackets hold non-standard residues; d marks the D form. NH(CH2)9CO = O=C(CCCCCCCCCN[*:1])[*:2]; NH(CH2)8CO = O=C(CCCCCCCCN[*:1])[*:2]; Cit = NC(=O)NCCC[C@H](N)C(=O)O; Aun = NCCCCCCCCCCC(=O)O; Aoc = NCCCCCCCC(=O)O; Ava = NCCCCC(=O)O A value given as a limit tells only on which side of the number the result lay.

T2 sequence (Q8NBP7 31-152, stated change not applied, chain 1 of 2): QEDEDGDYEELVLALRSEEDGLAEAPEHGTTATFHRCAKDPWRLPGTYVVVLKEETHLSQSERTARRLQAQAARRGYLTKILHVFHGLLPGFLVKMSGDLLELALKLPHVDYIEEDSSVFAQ
T2 sequence (Q8NBP7 other isoform, or with tags, fused parts or gaps mutant, chain 2 of 2): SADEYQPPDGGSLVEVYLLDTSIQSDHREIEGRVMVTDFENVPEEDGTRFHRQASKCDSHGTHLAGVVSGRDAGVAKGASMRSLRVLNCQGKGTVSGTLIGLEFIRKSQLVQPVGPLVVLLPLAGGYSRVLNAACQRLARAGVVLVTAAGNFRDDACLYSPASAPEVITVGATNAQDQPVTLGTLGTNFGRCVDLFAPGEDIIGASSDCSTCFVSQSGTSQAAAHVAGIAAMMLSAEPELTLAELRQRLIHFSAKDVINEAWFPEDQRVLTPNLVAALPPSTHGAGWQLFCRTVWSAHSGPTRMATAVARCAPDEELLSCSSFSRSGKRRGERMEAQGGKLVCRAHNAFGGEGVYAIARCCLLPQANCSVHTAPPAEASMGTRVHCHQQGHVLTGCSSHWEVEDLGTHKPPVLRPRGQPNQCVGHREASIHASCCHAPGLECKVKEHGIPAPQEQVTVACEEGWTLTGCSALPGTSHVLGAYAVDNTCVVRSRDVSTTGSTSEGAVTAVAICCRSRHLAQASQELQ
T1 sequence (Q8NBP7 31-692 limits assumed): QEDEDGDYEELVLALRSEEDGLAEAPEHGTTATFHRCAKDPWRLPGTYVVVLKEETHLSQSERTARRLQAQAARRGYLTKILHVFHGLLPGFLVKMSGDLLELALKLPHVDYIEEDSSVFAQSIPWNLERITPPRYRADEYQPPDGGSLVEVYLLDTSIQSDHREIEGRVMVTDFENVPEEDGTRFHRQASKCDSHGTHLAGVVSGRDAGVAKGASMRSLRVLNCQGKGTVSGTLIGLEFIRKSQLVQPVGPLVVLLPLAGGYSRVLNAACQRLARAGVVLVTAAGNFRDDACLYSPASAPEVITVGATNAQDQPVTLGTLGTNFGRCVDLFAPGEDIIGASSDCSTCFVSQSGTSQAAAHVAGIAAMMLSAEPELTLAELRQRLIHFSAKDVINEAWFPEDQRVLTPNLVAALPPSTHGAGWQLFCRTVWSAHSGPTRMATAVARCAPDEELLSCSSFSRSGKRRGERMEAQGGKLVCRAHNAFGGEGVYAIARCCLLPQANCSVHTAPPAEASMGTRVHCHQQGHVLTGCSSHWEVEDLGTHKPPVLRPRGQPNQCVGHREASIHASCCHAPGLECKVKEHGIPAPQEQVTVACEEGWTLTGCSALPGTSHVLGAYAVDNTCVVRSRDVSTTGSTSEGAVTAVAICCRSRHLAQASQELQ

B1: Compound 36 (Ac-SG-CFIPWNLQ(Cit)IGLPC-NH2) (peptide)
peptide: Ac-SGCFIPWNLQ[Cit]IGLPC-NH2
modifications: disulfide 3-16
SMILES: CC[C@H](C)[C@@H]1NC(=O)[C@H](CCCNC(N)=O)NC(=O)[C@H](CCC(N)=O)NC(=O)[C@H](CC(C)C)NC(=O)[C@H](CC(N)=O)NC(=O)[C@H](Cc2c[nH]c3ccccc23)NC(=O)[C@@H]2CCCN2C(=O)[C@H]([C@@H](C)CC)NC(=O)[C@H](Cc2ccccc2)NC(=O)[C@@H](NC(=O)CNC(=O)[C@H](CO)NC(C)=O)CSSC[C@@H](C(N)=O)NC(=O)[C@@H]2CCCN2C(=O)[C@H](CC(C)C)NC(=O)CNC1=O
Take B1: the IC50 in assay [1] is more than 50 µM.

B2: Compound 84 (Ac-CRLPWNLQR-(Ade)-C-NH2) (peptide)
peptide: Ac-CRLPWNLQR[NH(CH2)9CO]C-NH2
modifications: disulfide 1-11
SMILES: CC(=O)N[C@H]1CSSC[C@@H](C(N)=O)NC(=O)CCCCCCCCCNC(=O)[C@H](CCCNC(=N)N)NC(=O)[C@H](CCC(N)=O)NC(=O)[C@H](CC(C)C)NC(=O)[C@H](CC(N)=O)NC(=O)[C@H](Cc2c[nH]c3ccccc23)NC(=O)[C@@H]2CCCN2C(=O)[C@H](CC(C)C)NC(=O)[C@H](CCCNC(=N)N)NC1=O
In assay [1], B2 gave an IC50 of more than 50 µM.

B3: Compound 31 (Ac-CFIPWNLQRIGLLC-NH2) (peptide)
peptide: Ac-CFIPWNLQRIGLLC-NH2
modifications: disulfide 1-14
SMILES: CC[C@H](C)[C@@H]1NC(=O)[C@H](CCCNC(=N)N)NC(=O)[C@H](CCC(N)=O)NC(=O)[C@H](CC(C)C)NC(=O)[C@H](CC(N)=O)NC(=O)[C@H](Cc2c[nH]c3ccccc23)NC(=O)[C@@H]2CCCN2C(=O)[C@H]([C@@H](C)CC)NC(=O)[C@H](Cc2ccccc2)NC(=O)[C@@H](NC(C)=O)CSSC[C@@H](C(N)=O)NC(=O)[C@H](CC(C)C)NC(=O)[C@H](CC(C)C)NC(=O)CNC1=O
For the molecule B3, the figures for the IC50 (with His-tagged PCSK9Δhelix; in assay [1]) were 2.4 µM and more than 50 µM, respectively.

B4: Compound 85 (Ac-CRLPWNLQR-(Ano)-C-NH2) (peptide)
peptide: Ac-CRLPWNLQR[NH(CH2)8CO]C-NH2
modifications: disulfide 1-11
SMILES: CC(=O)N[C@H]1CSSC[C@@H](C(N)=O)NC(=O)CCCCCCCCNC(=O)[C@H](CCCNC(=N)N)NC(=O)[C@H](CCC(N)=O)NC(=O)[C@H](CC(C)C)NC(=O)[C@H](CC(N)=O)NC(=O)[C@H](Cc2c[nH]c3ccccc23)NC(=O)[C@@H]2CCCN2C(=O)[C@H](CC(C)C)NC(=O)[C@H](CCCNC(=N)N)NC1=O
Regarding B4, the IC50 in assay [1] is more than 50 µM.

B5: Compound 86 (Ac-CRLPWNLQR-(Aoc)-C-NH2) (peptide)
peptide: Ac-CRLPWNLQR[Aoc]C-NH2
modifications: disulfide 1-11
SMILES: CC(=O)N[C@H]1CSSC[C@@H](C(N)=O)NC(=O)CCCCCCCNC(=O)[C@H](CCCNC(=N)N)NC(=O)[C@H](CCC(N)=O)NC(=O)[C@H](CC(C)C)NC(=O)[C@H](CC(N)=O)NC(=O)[C@H](Cc2c[nH]c3ccccc23)NC(=O)[C@@H]2CCCN2C(=O)[C@H](CC(C)C)NC(=O)[C@H](CCCNC(=N)N)NC1=O
B5: in assay [1], the half-inhibitory concentration (IC50) is more than 50 µM.

B6: Compound 32 (Ac-CRLPWNLQRIGLPC-NH2) (peptide)
peptide: Ac-CRLPWNLQRIGLPC-NH2
modifications: disulfide 1-14
SMILES: CC[C@H](C)[C@@H]1NC(=O)[C@H](CCCNC(=N)N)NC(=O)[C@H](CCC(N)=O)NC(=O)[C@H](CC(C)C)NC(=O)[C@H](CC(N)=O)NC(=O)[C@H](Cc2c[nH]c3ccccc23)NC(=O)[C@@H]2CCCN2C(=O)[C@H](CC(C)C)NC(=O)[C@H](CCCNC(=N)N)NC(=O)[C@@H](NC(C)=O)CSSC[C@@H](C(N)=O)NC(=O)[C@@H]2CCCN2C(=O)[C@H](CC(C)C)NC(=O)CNC1=O
For B6, the IC50 with His-tagged PCSK9Δhelix is 0.97 µM; in assay [1] it was more than 50 µM.

B7: Compound 21 (Ac-CWNLKRIGSQGC-NH2) (peptide)
peptide: Ac-CWNLKRIGSQGC-NH2
modifications: disulfide 1-12
SMILES: CC[C@H](C)[C@@H]1NC(=O)[C@H](CCCNC(=N)N)NC(=O)[C@H](CCCCN)NC(=O)[C@H](CC(C)C)NC(=O)[C@H](CC(N)=O)NC(=O)[C@H](Cc2c[nH]c3ccccc23)NC(=O)[C@@H](NC(C)=O)CSSC[C@@H](C(N)=O)NC(=O)CNC(=O)[C@H](CCC(N)=O)NC(=O)[C@H](CO)NC(=O)CNC1=O
Consider B7, for which, in assay [1], the IC50 was more than 50 µM. Turning to Ac-SGCRLPWNLQRIGLPC-NH2 (disulfide 3-16) [Compound 30 (Ac-SG-CRLPWNLQRIGLPC-NH2)], the results for the IC50 (in the assay with His-tagged PCSK9Δhelix; in assay [1]) were 0.95 µM and more than 50 µM, respectively.

B8: Compound 83 (Ac-CRLPWNLQR-(Aun)-C-NH2) (peptide)
peptide: Ac-CRLPWNLQR[Aun]C-NH2
modifications: disulfide 1-11
SMILES: CC(=O)N[C@H]1CSSC[C@@H](C(N)=O)NC(=O)CCCCCCCCCCNC(=O)[C@H](CCCNC(=N)N)NC(=O)[C@H](CCC(N)=O)NC(=O)[C@H](CC(C)C)NC(=O)[C@H](CC(N)=O)NC(=O)[C@H](Cc2c[nH]c3ccccc23)NC(=O)[C@@H]2CCCN2C(=O)[C@H](CC(C)C)NC(=O)[C@H](CCCNC(=N)N)NC1=O
B8 showed a 50% inhibitory concentration (IC50) in assay [1] of more than 50 µM.

B9: Compound 115 (Ac-CRLPWNLQRI-(Ape)-C-NH2) (peptide)
peptide: Ac-CRLPWNLQRI[Ava]C-NH2
modifications: disulfide 1-12
SMILES: CC[C@H](C)[C@@H]1NC(=O)[C@H](CCCNC(=N)N)NC(=O)[C@H](CCC(N)=O)NC(=O)[C@H](CC(C)C)NC(=O)[C@H](CC(N)=O)NC(=O)[C@H](Cc2c[nH]c3ccccc23)NC(=O)[C@@H]2CCCN2C(=O)[C@H](CC(C)C)NC(=O)[C@H](CCCNC(=N)N)NC(=O)[C@@H](NC(C)=O)CSSC[C@@H](C(N)=O)NC(=O)CCCCNC1=O
With B9, the IC50 in assay [1] is more than 50 µM.

B10: Compound 22 (Ac-GSG-CWNLKRIGSQGC-NH2) (peptide)
peptide: Ac-GSGCWNLKRIGSQGC-NH2
modifications: disulfide 4-15
SMILES: CC[C@H](C)[C@@H]1NC(=O)[C@H](CCCNC(=N)N)NC(=O)[C@H](CCCCN)NC(=O)[C@H](CC(C)C)NC(=O)[C@H](CC(N)=O)NC(=O)[C@H](Cc2c[nH]c3ccccc23)NC(=O)[C@@H](NC(=O)CNC(=O)[C@H](CO)NC(=O)CNC(C)=O)CSSC[C@@H](C(N)=O)NC(=O)CNC(=O)[C@H](CCC(N)=O)NC(=O)[C@H](CO)NC(=O)CNC1=O
With B10, the IC50 in assay [1] was 42 µM and > 50 µM.

B11: Compound 29 (Ac-SG-CFIPWNLQRIGLLC-NH2) (peptide)
peptide: Ac-SGCFIPWNLQRIGLLC-NH2
modifications: disulfide 3-16
SMILES: CC[C@H](C)[C@@H]1NC(=O)[C@H](CCCNC(=N)N)NC(=O)[C@H](CCC(N)=O)NC(=O)[C@H](CC(C)C)NC(=O)[C@H](CC(N)=O)NC(=O)[C@H](Cc2c[nH]c3ccccc23)NC(=O)[C@@H]2CCCN2C(=O)[C@H]([C@@H](C)CC)NC(=O)[C@H](Cc2ccccc2)NC(=O)[C@@H](NC(=O)CNC(=O)[C@H](CO)NC(C)=O)CSSC[C@@H](C(N)=O)NC(=O)[C@H](CC(C)C)NC(=O)[C@H](CC(C)C)NC(=O)CNC1=O
Take B11: the IC50 with His-tagged PCSK9Δhelix was 1.9 µM; in assay [1], more than 50 µM.

B12: Compound 64 (Ac-DCLWNLKRIGSQCEY-NH2) (peptide)
peptide: Ac-DCLWNLKRIGSQCEY-NH2
modifications: disulfide 2-13
SMILES: CC[C@H](C)[C@@H]1NC(=O)[C@H](CCCNC(=N)N)NC(=O)[C@H](CCCCN)NC(=O)[C@H](CC(C)C)NC(=O)[C@H](CC(N)=O)NC(=O)[C@H](Cc2c[nH]c3ccccc23)NC(=O)[C@H](CC(C)C)NC(=O)[C@@H](NC(=O)[C@H](CC(=O)O)NC(C)=O)CSSC[C@@H](C(=O)N[C@@H](CCC(=O)O)C(=O)N[C@@H](Cc2ccc(O)cc2)C(N)=O)NC(=O)[C@H](CCC(N)=O)NC(=O)[C@H](CO)NC(=O)CNC1=O
On to B12, for which the IC50 in assay [1] is more than 50 µM.

One may read the IC50 as the midpoint of a concentration-inhibition curve. A lower IC50 goes with higher potency.

The values above are taken from patent US20200283478A1 (Genentech, published 2020).
